{
  "source": "patent US20090149389A1",
  "about": "(PURDUE RESEARCH FOUNDATION, published 2009)",
  "assay_in_all_cases": "cell-based or functional assay",
  "key": {"[1]": {"molecular_target": "T1, Ret (h) (human (h), UniProt P07949 658-1114, limits assumed)", "T1 sequence (looked up)": "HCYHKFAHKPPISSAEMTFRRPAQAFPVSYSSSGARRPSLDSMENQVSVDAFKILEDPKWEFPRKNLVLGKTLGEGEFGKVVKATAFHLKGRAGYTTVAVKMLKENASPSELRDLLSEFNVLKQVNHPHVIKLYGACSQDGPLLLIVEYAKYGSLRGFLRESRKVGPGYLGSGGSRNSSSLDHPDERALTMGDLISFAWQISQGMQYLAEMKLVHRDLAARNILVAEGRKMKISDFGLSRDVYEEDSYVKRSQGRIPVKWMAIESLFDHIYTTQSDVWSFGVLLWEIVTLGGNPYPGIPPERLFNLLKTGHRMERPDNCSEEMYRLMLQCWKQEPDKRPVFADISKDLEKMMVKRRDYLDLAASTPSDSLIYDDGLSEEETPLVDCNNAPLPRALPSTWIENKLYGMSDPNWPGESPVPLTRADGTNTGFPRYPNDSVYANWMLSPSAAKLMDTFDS"}, "[2]": {"molecular_target": "AMPK (r) (rat (r), UniProt Q09137 1-552, limits assumed)", "sequence (Q09137 whole entry)": "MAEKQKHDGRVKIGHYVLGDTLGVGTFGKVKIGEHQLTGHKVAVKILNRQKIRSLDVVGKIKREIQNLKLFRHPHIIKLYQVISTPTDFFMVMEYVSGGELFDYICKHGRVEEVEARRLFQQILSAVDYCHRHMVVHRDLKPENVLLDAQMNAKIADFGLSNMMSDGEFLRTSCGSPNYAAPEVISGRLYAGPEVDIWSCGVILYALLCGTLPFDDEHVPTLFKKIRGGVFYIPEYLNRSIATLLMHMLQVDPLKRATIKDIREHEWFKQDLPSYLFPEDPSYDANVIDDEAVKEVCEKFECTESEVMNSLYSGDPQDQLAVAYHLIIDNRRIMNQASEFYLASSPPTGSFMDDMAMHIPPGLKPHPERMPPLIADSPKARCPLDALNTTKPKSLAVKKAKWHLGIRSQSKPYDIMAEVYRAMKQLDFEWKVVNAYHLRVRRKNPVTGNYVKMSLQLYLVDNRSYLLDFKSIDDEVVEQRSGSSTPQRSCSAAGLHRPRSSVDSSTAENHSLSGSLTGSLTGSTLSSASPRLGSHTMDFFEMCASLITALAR"}, "[3]": {"molecular_target": "SAPK2 a (h) (human (h), UniProt Q16539 1-360)", "sequence (Q16539 whole entry)": "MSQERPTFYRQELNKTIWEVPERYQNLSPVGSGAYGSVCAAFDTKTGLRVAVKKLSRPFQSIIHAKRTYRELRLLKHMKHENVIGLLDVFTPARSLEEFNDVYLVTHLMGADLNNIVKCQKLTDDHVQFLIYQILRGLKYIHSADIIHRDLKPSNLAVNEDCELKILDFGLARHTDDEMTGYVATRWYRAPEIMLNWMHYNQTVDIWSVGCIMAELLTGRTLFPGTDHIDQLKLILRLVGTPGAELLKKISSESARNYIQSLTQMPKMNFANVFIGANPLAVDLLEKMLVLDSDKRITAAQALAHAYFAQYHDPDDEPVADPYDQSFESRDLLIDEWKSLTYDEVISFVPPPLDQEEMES"}, "[4]": {"molecular_target": "EGFR (h) (human (h), UniProt P00533 696-1210, limits assumed)"}, "[5]": {"molecular_target": "CDKI/cyclinB (h) (human (h), UniProt P06493 1-297)", "sequence (P06493 whole entry)": "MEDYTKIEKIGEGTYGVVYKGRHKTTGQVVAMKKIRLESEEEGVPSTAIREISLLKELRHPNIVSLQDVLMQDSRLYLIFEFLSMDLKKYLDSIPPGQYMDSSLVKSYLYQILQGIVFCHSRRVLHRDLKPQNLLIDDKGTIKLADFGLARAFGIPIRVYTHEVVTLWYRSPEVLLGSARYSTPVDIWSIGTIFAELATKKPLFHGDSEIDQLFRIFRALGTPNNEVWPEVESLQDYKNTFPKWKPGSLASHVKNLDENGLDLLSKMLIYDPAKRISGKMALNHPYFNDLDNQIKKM"}, "[6]": {"molecular_target": "Pim-1 (h) (human (h), UniProt P11309 1-313)", "sequence (P11309 whole entry)": "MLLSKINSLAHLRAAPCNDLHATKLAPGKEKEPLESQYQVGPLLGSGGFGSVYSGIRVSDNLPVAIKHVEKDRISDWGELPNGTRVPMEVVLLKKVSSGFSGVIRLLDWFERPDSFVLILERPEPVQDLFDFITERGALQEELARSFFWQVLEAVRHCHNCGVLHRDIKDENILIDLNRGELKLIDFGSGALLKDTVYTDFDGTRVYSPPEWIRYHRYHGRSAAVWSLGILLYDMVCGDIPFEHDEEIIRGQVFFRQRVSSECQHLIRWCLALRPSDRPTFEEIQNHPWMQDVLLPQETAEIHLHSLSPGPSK"}, "[7]": {"molecular_target": "PKB β (h) (human (h), UniProt P31751 1-481, limits assumed)", "sequence (P31751 whole entry)": "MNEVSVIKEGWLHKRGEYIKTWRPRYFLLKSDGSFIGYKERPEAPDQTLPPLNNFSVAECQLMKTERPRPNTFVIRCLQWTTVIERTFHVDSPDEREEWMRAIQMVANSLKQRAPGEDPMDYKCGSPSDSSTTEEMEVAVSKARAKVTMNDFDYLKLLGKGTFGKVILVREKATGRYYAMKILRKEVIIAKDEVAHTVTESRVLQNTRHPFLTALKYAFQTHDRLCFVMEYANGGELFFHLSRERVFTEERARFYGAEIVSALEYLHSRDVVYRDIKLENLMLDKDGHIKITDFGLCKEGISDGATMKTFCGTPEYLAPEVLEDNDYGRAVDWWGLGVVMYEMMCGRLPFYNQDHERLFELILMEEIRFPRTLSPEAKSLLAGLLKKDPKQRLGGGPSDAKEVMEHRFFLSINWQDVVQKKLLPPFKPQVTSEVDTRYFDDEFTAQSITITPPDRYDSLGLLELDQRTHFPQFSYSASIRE"}, "[8]": {"molecular_target": "T2, CHK1 (h) (human (h), UniProt O14757 1-476)", "T2 sequence (looked up)": "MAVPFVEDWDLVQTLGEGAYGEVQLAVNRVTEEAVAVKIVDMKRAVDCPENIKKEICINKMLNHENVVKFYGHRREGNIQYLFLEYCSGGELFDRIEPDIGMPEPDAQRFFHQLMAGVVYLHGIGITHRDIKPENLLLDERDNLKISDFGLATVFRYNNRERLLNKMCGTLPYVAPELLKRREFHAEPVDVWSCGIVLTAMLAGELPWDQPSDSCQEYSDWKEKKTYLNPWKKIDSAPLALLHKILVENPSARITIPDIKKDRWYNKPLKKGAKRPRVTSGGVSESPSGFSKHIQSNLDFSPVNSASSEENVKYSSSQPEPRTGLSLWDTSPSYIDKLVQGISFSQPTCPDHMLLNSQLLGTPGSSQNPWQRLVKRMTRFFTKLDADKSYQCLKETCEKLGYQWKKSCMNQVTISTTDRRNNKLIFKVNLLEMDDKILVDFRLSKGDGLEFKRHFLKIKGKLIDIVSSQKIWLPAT"}, "[9]": {"molecular_target": "T3, MKK4 (m) (mouse (m), UniProt P47809 35-397, limits assumed)", "T3 sequence (looked up)": "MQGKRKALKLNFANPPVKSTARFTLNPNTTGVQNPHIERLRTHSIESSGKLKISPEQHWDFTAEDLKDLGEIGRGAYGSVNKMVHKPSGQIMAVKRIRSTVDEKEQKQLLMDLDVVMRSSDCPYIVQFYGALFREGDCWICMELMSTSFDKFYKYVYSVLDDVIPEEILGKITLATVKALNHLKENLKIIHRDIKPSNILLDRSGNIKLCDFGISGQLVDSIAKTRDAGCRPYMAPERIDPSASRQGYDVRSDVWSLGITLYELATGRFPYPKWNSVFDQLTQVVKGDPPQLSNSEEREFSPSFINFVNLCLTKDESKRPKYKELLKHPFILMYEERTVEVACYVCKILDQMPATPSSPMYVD"}, "[10]": {"molecular_target": "MEKI (h) (human (h), UniProt Q02750 1-393)"}, "[11]": {"molecular_target": "MSK1 (h) (human (h), UniProt O75582 1-802)"}, "[12]": {"molecular_target": "PDGFRβ (h) (human (h), UniProt P09619 558-1106, limits assumed)", "sequence (P09619 558-1106 limits assumed)": "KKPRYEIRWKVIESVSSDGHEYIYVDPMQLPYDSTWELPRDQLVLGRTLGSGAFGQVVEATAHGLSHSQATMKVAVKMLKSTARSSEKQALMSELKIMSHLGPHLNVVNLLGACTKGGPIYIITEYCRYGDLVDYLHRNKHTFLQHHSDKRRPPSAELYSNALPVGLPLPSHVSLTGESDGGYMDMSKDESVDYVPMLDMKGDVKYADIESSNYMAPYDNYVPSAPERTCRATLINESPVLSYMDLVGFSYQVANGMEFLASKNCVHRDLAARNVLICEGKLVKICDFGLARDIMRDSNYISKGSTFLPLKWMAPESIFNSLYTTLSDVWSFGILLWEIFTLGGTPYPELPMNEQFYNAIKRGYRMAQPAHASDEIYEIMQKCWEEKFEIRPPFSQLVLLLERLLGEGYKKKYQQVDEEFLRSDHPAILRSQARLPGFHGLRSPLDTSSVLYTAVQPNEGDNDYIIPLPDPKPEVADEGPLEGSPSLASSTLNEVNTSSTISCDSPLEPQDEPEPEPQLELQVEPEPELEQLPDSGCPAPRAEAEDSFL"}, "[13]": {"molecular_target": "T4, IRAK4 (h) (human (h), UniProt Q9NWZ3 1-460, limits assumed)", "T4 sequence (looked up)": "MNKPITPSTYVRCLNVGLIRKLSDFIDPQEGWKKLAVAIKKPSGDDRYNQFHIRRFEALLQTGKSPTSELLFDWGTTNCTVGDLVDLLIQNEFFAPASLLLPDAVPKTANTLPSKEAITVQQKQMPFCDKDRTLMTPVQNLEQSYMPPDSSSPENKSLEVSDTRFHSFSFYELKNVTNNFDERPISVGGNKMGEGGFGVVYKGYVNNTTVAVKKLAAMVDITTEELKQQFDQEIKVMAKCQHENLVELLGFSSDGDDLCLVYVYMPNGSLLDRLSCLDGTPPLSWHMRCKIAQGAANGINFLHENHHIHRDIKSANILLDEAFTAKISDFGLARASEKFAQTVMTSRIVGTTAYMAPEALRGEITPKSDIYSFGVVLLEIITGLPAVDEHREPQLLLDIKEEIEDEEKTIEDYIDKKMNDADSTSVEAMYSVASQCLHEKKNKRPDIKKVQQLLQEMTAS"}, "[14]": {"molecular_target": "Abl (h) (human (h), UniProt P00519 27-1130, limits assumed)", "sequence (P00519 27-1130 limits assumed)": "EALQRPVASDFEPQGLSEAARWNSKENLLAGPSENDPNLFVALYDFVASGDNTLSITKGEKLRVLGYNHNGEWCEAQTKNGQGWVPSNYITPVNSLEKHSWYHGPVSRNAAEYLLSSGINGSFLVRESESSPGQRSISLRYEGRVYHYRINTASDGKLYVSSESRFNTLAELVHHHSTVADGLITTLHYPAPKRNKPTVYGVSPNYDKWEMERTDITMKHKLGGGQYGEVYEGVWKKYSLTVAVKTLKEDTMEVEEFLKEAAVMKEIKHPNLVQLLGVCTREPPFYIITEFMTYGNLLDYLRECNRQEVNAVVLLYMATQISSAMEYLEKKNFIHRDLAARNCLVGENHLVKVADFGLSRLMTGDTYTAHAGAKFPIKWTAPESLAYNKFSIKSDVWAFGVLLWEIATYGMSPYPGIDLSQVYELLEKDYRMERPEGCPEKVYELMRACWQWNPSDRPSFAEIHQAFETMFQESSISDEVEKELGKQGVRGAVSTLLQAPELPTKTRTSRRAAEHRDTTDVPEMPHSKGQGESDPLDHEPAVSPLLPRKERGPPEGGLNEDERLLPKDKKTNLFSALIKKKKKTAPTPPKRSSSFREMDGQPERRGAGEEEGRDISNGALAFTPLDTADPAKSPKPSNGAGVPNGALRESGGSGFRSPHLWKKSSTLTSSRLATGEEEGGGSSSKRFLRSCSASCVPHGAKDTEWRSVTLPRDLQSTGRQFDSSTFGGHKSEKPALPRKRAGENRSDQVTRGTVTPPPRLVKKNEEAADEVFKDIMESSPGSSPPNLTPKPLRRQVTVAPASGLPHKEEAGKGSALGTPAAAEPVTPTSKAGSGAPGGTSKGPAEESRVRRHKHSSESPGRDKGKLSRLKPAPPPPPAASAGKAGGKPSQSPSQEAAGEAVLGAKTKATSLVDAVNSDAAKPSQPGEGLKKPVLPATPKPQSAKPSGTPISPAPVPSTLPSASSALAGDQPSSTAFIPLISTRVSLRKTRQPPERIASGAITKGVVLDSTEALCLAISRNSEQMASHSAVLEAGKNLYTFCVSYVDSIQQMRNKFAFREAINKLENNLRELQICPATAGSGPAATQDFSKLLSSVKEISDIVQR"}, "[15]": {"molecular_target": "PKCδ (h) (human (h), UniProt Q05655 1-676)"}, "[16]": {"molecular_target": "Met (h) (human (h), UniProt P08581 974-1390, limits assumed)", "sequence (P08581 974-1390 limits assumed)": "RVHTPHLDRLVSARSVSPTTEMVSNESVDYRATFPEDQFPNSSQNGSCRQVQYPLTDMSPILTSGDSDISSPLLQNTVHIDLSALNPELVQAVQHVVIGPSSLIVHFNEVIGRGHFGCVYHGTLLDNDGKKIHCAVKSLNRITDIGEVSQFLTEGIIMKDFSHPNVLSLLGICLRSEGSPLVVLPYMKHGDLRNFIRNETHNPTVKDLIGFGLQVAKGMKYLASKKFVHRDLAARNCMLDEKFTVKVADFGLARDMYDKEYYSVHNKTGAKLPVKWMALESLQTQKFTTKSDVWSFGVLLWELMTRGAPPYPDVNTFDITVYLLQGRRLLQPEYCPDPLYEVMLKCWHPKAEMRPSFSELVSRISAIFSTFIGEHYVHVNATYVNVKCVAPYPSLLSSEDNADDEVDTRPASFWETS"}, "[17]": {"molecular_target": "KDR (tl) (UniProt P35968 790-1356, limits assumed)", "sequence (P35968 790-1356 limits assumed)": "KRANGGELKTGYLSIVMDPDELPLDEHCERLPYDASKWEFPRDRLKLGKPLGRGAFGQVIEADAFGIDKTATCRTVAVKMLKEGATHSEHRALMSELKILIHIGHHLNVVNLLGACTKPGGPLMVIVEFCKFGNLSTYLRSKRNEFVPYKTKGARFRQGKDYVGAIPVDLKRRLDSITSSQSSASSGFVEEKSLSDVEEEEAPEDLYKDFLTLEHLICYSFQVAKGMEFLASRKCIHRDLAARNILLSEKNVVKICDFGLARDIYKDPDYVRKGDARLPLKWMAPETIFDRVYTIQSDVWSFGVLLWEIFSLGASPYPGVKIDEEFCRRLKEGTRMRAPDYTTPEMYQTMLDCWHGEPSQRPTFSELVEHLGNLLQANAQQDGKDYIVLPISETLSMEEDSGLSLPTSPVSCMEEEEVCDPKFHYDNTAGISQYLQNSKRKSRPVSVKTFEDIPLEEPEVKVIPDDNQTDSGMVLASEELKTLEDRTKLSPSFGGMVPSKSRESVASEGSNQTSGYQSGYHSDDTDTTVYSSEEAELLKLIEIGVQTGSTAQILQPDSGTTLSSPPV"}, "[18]": {"molecular_target": "ASK1 (h) (human (h), UniProt Q99683 649-946, limits assumed)", "sequence (Q99683 649-946 limits assumed)": "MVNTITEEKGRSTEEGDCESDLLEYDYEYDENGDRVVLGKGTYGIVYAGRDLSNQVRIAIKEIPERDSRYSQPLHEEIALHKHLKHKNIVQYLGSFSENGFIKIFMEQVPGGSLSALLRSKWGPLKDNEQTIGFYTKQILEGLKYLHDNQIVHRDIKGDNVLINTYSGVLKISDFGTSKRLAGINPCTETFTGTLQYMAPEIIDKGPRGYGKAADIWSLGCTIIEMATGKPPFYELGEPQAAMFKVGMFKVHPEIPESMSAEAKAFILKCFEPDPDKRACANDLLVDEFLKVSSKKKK"}, "[19]": {"molecular_target": "JNK1α1 (h) (human (h), UniProt P45983-2 1-384)"}},
  "data": [
    {"binder": "FAKLAARLYRKALARQLGVAA", "values": [
      {"measurement": "Profile-1 @ = 100 µm (kinase profiler assay)", "setting": "[1]", "value": 89},
      {"measurement": "Profile-1 @ = 100 µm (kinase profiler assay)", "setting": "[2]", "value": 101},
      {"measurement": "Profile-1 @ = 100 µm (kinase profiler assay)", "setting": "[3]", "value": 30},
      {"measurement": "Profile-1 @ = 100 µm (kinase profiler assay)", "setting": "[4]", "value": 18},
      {"measurement": "Profile-1 @ = 100 µm (kinase profiler assay)", "setting": "[5]", "value": 36},
      {"measurement": "Profile-1 @ = 100 µm (kinase profiler assay)", "setting": "[6]", "value": 1},
      {"measurement": "Profile-1 @ = 100 µm (kinase profiler assay)", "setting": "[7]", "value": 16},
      {"measurement": "Profile-1 @ = 100 µm (kinase profiler assay)", "setting": "[8]", "value": 54},
      {"measurement": "Profile-1 @ = 100 µm (kinase profiler assay)", "setting": "[9]", "value": 90},
      {"measurement": "Profile-1 @ = 100 µm (kinase profiler assay)", "setting": "[10]", "value": 68},
      {"measurement": "Profile-1 @ = 100 µm (kinase profiler assay)", "setting": "[11]", "value": 11},
      {"measurement": "Profile-1 @ = 100 µm (kinase profiler assay)", "setting": "[12]", "value": 92},
      {"measurement": "Profile-1 @ = 100 µm (kinase profiler assay)", "setting": "[13]", "value": 13},
      {"measurement": "Profile-1 @ = 100 µm (kinase profiler assay)", "setting": "[14]", "value": 41},
      {"measurement": "Profile-1 @ = 100 µm (kinase profiler assay)", "setting": "[15]", "value": 40},
      {"measurement": "Profile-1 @ = 100 µm (kinase profiler assay)", "setting": "[16]", "value": 17},
      {"measurement": "Profile-1 @ = 100 µm (kinase profiler assay)", "setting": "[17]", "value": 78},
      {"measurement": "Profile-1 @ = 100 µm (kinase profiler assay)", "setting": "[18]", "value": 53},
      {"measurement": "Profile-1 @ = 100 µm (kinase profiler assay)", "setting": "[19]", "value": 91}
    ]}
  ]
}
